According to article PMC4182809:

Target: plastidic glutamine synthetase (GS2), spinach, 420 kDa stromal holoenzyme (spinach (Spinacia oleracea), endogenous in leaf chloroplasts)
Assay: native gel or EMSA; BN-PAGE (4-16% Bis-Tris gradient gel, 4°C) of stroma and thylakoid proteins of chloroplasts, western blot, with 2D SDS-PAGE; extraction in 20 mM Hepes-KOH pH 7.5, or potassium phosphate pH 6 or pH 8 with or without 0.1 M NaCl, 10 mM DTT or 10 mM ascorbic acid

stoichiometry N: 10
Substance: plastidic glutamine synthetase (GS2), spinach, 420 kDa stromal holoenzyme
